How the values were obtained:
Assay in all cases: ELISA
[1] = biological target: H1 HA A/Texas/36/1991 (H1N1), recombinant soluble trimer (influenza A virus)
[2] = biological target: H3 HA A/Texas/50/2012, recombinant soluble trimer (influenza A virus)
[3] = biological target: H1 HA A/Solomon Islands/03/2006 (H1N1), recombinant soluble trimer (influenza A virus)

Measured: EC50 relative to wild type rFluA-20

B1: rFluA-20 heavy chain mutant Y100aA (antibody, V domains shown)
VH: QVQLQESGPGLVKPSETLSLTCSVSGVSVTSDIYYWTWIRQPPGKGLEWIGYIFYNGDTNYNPSLKSRVTMSIDTSKNEFSLRLTSVTAADTAVYFCARGTEDLGACSSGSCPNHWGQGTLVTVSS
VL: DIQMTQSPSSLSASIGDRVTITCRPSQNIRSFLNWFQHKPGKAPKLLIYAASNLQSGVPSRFSGSGSGTEFTLTIRSLQPEDFATYYCQQSYNTPPTFGQGTKVEIK
> 100 fold: all assays above
